T1: human interferon alpha receptor 1 (IFNAR-1) on cells (Daudi, U937, human peripheral blood mononuclear cells) (human, UniProt P17181 28-557)
T1 sequence (looked up): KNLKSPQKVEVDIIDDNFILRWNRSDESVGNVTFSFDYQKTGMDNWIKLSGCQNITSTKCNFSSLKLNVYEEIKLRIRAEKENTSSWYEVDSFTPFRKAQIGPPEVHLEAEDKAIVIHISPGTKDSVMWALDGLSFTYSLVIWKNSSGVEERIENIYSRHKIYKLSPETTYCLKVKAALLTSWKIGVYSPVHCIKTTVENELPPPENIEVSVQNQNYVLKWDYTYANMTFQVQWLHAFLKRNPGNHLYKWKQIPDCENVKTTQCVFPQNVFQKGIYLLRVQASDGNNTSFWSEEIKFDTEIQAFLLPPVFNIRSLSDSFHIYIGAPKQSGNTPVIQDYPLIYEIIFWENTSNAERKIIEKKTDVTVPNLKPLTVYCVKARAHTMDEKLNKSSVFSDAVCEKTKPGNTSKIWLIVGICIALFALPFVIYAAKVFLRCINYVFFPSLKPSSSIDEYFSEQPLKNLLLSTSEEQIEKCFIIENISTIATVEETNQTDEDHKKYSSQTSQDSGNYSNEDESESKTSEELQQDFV

T2: soluble CHO-derived human IFNAR-1 (human, UniProt P17181 28-436)
T2 construct: extracellular domain; also called soluble IFNAR-1
T2 sequence (looked up): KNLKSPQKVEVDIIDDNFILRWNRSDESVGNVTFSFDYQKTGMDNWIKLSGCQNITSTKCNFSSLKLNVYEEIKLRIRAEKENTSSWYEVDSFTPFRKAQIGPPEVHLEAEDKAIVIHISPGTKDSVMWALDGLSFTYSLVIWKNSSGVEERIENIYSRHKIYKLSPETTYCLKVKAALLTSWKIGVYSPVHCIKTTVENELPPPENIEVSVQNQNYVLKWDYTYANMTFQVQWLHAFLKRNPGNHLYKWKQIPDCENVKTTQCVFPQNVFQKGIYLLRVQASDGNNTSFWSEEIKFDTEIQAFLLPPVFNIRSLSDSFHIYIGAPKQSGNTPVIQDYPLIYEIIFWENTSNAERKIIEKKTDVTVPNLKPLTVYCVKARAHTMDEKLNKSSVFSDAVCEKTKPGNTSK


Experiments:
[1] = molecular target: T1, human interferon alpha receptor 1 …; assay: cell-based or functional assay
[2] = molecular target: T1, human interferon alpha receptor 1 …; assay: cell-based or functional assay; remark: listed apart in the source
[3] = molecular target: T2, soluble CHO-derived human IFNAR-1; assay: cross-competition ELISA on plate-coated soluble CHO-derived human IFNAR-1; titrated antibody against 64G12 at 0.3 ug/mL as competitor, detected with anti-mouse IgG (Fc) peroxidase, O.D. 415 nm

Binder	Cell Proliferation (Daudi) EC50, blocking of IFN omega [1] [nM]	Cell Proliferation (Daudi) EC50, blocking of IFN alpha 2b [2] [nM]	ISRE-RG Reporter (U937) EC50, blocking of IFN alpha 2b [2] [nM]	IC50 (read off the curve) [3] [µg/mL]
human monoclonal antibody 4G5 (antibody, IgG1, V domains shown) VH: QVQLQQWGAGLLKPSETLSLTCAVYGGSFSNYYWSWIRQPPGKGLEWIGEIILSGSTNYNPSLKSRVTISVDTSKNQFSLNLTSVTAADTAVYYCARESKWGYYFDSWGQGTLVTVSS VL: AIQLTQSPSSLSASVGDRVTITCRATQDISIALVWYQQKPGKAPELLIYDASGLGSGVPSRFSGSGSGTDFTLTISSLQPEDFATYYCQQFNSYPYTFGQGTKLEIK	1.4			
human monoclonal antibody 3F11 (antibody, IgG1, V domains shown) VH: QVQLQQWGAGLLKPSETLSLTCAVYGGSFSGYFWSWIRQPPGKGLEWIGEIDHSGKTNYNPSLKSRVTISVDTSKNQVSLKLSSVTAADTAVYYCARESKYYFGLDVWGQGTTVTVTS VL: AIQLTQSPSSLSASVGDRVTITCRASQGIYSVLAWYQQKPGKTPKLLIYDASRLESGVPSRFSGSGSGTDFTLTISSLQPEDFATYYCQQFNSYITFGQGTRLEIK	0.6	0.3	1.2	

The remaining lines, values ahead:

Cell Proliferation (Daudi) EC50, blocking of IFN omega [1] [nM]	Cell Proliferation (Daudi) EC50, blocking of IFN alpha 2b [2] [nM]	ISRE-RG Reporter (U937) EC50, blocking of IFN alpha 2b [2] [nM]	IC50 (read off the curve) [3] [µg/mL]	Binder
0.3				human monoclonal antibody 11E2 (antibody, IgG1, V domains shown) VH: EVQLVQSGAEVKKPGESLKISCKGSGYIFTNYWIAWVRQMPGKGLESMGIIYPGDSDIRYSPSFQGQVTISADKSITTAYLQWSSLKASDTAMYYCARHDIEGFDYWGRGTLVTVSS VL: EIVLTQSPGTLSLSPGERATLSCRASQSVSSSFFAWYQQKPGQAPRLLIYGASSRATGIPDRLSGSGSGTDFTLTITRLEPEDFAVYYCQQYDSSAITFGQGTRLEIK
0.3				human monoclonal antibody 9D4 (antibody, IgG1, V domains shown) VH: EVQLVQSGAEVKKPGESLKISCKGSGYIFTNYWIAWVRQMPGKGLESMGIIYPGDSDIRYSPSFQGQVTISADKSITTAYLQWSSLKASDTAMYYCARHDIEGFDYWGRGTLVTVSS VL: EIVLTQSPGTLSLSPGERATLSCRASQSVSSSFFAWYQQKPGQAPRLLIYGASSRATGIPDRLSGSGSGTDFTLTITRLEPEDFAVYYCQQYDSSAITFGQGTRLEIK
5.5	3.1	6	~0.7	murine anti-IFNAR-1 antibody 64G12 (ECACC Deposit No. 92022605) (antibody, V domains shown) VH: QVTLKESGPGILKPSQTLSLTCSFSGFSLSTSGMGIGWIRQPSGKGLEWLAHIWWDDDKYYNPSLKSQLTISRDTSTNQVFLNITSVDTVDTATYYCGRNYYPYDAWFDYWGQGTLVTVS VL: EIVLTQSPTTMAASPGEKITITCSASSSINSNHLHWYQQKPGFSPKVLIYRTSILASGVPTRFSGSGSGTSYSLTIGTMEAEDVATYYCQQGSNIPFTFGSGTELEIKR

From US20060029601A1 (E R SQUIBB AND SONS L L C, published 2006)
